Test results published in patent US20180334496A1 (KODIAK SCIENCES, published 2018).
“And” between values parts separate entries of the source, which are not always exact repeats. Equal entries are not always repeated. Where two headings read alike, the source gives them in different places.

Tests used:
[1] = molecular target: T1, human complement factor D purified from serum (human, UniProt P00746 26-253); on CFD Enzymatic activity (% of Neg Ctrl): test concentration or dose not given here
T1 construct: serum-purified (CompTech); also called hCFD-Comptech; CFD

[2] = molecular target: T1, human complement factor D purified from …; assay: cell-based or functional assay
[3] = molecular target: T1, human complement factor D purified from …; assay: SPR MX96
[4] = molecular target: T2, recombinant cynomolgus CFD, His-tagged (cynomolgus); assay: SPR MX96
T2 construct: also called rcyCFD-His; recombinant Cyno-CFD

[5] = molecular target: T3, recombinant human CFD, His-tagged (human, UniProt P00746 26-253); assay: SPR MX96
T3 construct: also called rhCFD-His

[6] = molecular target: T4, recombinant human CFD mutant 1 (R157A, R207A), His-tagged (human, UniProt P00746 26-253); assay: ELISA
T4 construct: positions are linear positions in the mature protein; also called rhCFD-mut1-His; Mut1

[7] = molecular target: T4, recombinant human CFD mutant 1 (R157A, …); assay: ELISA; remark: listed apart in the source
[8] = molecular target: T1, human complement factor D purified from …; remark: listed apart in the source
[9] = molecular target: T1, human complement factor D purified from …; assay: cell-based or functional assay; remark: listed apart in the source
[10] = molecular target: T4, recombinant human CFD mutant 1 (R157A, …); assay: SPR MX96
[11] = molecular target: human Complement Factor D (serum purified) (human, UniProt P00746 26-253); assay: cell-based or functional assay
[12] = molecular target: T5, serum purified human Complement Factor D (human, UniProt P00746 26-253); assay: SPR Biacore, 25 C
T5 construct: Serum purified protein flowed over the captured antibodies; also called CFD; human CFD

[13] = molecular target: T5, serum purified human Complement Factor D; assay: SPR Biacore, antibody on protein A chip, single cycle kinetics, 37 C;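 further: antibodies captured on the protein A surface to roughly 70 RU in HBS-EP+ buffer, with rate and affinity constants fitted using BIAevaluation software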
[14] = molecular target: T5, serum purified human Complement Factor D; assay: SPR Biacore, 37 C
[15] = molecular target: T5, serum purified human Complement Factor D; assay: SPR Biacore, antibody on protein A chip, single cycle kinetics, 25 C;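 further: antibodies captured to roughly 70 RU on the protein A surface in HBS-EP+ running buffer, with kinetic constants derived by BIAevaluation fitting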

T4 sequence (P00746 26-253 R182A/R232A limits assumed): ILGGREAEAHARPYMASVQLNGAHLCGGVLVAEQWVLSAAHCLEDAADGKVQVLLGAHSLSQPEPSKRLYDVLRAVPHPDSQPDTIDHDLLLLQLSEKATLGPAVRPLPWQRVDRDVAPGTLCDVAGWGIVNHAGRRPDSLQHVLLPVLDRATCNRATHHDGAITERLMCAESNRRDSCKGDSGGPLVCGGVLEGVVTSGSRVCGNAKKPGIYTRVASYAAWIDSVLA
T1 sequence (P00746 26-253): as the sequence (P00746 26-253 R182A/R232A limits assumed) above, with A157R, A207R counted along it
T5 sequence (P00746 26-253): as the sequence (P00746 26-253 R182A/R232A limits assumed) above, with A157R, A207R counted along it
T3 sequence (P00746 26-253 limits assumed): as the sequence (P00746 26-253 R182A/R232A limits assumed) above, with A157R, A207R counted along it
human Complement Factor D (serum purified), sequence (P00746 26-253): as the sequence (P00746 26-253 R182A/R232A limits assumed) above, with A157R, A207R counted along it

| Binder | Kd [3] | Kd [4] | Kd [5] | Mut1 Binding (% wt) [7] [% wt] | Kd [8] [nM] | CFD Enzymatic activity (% of Neg Ctrl) [9] | Kd [10] [nM] | % no ab control, CFD enzymatic activity on Z-L-Lys-SBzl [11] [% no ab control] | Vmax (OD/sec), CFD enzymatic activity on Z-L-Lys-SBzl [11] [OD/sec] | further results |
| --- | --- | --- | --- | --- | --- | --- | --- | --- | --- | --- |
| KCD119 (antibody, V domains shown, chimeric; also called Mouse KCD119) VH: EVQLQQSGPELVKPGASVKISCKASGYTFTDYYTNWMRQRHGESLEWIGDINPNTGDTSYNQKFRVKATLTVDKSSGTAYMGLRSLTSEDSAVYYCTREGPSFAYWGQGTLVTVSA VL: DVLMTQTPLSLPVSLGDQASISCRSSQTIVHSNGDTYLEWYLQKPGQSPNLLIYKVSNRFSGVPDRFSGSGSGTDFTLKISRVEAEDLGVYYCFQGSHVPPTFGGGTTLEIK | 0.37 nM and 0.86 nM | 0.7 nM and 1.1 nM | 0.28 nM and 0.56 nM | – | – | – | – | – | – | Kd [1]: 0.0358 nM; CFD Enzymatic activity (% of Neg Ctrl) [2]: 15.7 % of Neg Ctrl |
| KCD124 (antibody, V domains shown, chimeric) VH: EVQLQQSGPELVKPGASVKISCKASGYTFTDHYMNWVKQSHGKSLEWIGDINPNNGGTSYNQKFKGKATLTVDKSSSTAYMELRSLTSGDSAVYYCTREGASFAFWGQGTLVTVSA VL: DVLMTQTPLSLPVSLGDQASISCRSSQSIVHSNGDTYLEWYLQKPGQSPKLLIYKVSNRFSGVPDRFSGSGSGTDFTLKISRVEAEDLGVYYCFQGSHVPLTFGAGTKLELK | 4.3 nM | 5.2 nM | 3.3 nM | – | – | – | – | – | – | Mut1 Binding (% wt) [6]: -0.643 % wt; Kd [1]: 0.78 nM; CFD Enzymatic activity (% of Neg Ctrl) [2]: 19.7 % of Neg Ctrl |
| KCD042 (antibody, V domains shown, chimeric) VH: EVQLQQSGAELVKPGASVRLSCTASGFNIKHTYIHWVSQRPEQGLEWIGKIDPANGNTKYDPKFQGKATITADTSSNTAYLQLSSLTSEDTAVYYCVNAMEYWGQGTSVTVSS VL: QSVLTQSPAIMSASPGEKVTMTCSANSSVSDMYWFQQRPGSSPRLLIYDTSNLASGVPVRFSGSGSGTSYSLTISRMEAEDAATYYCQQWSTYPWTFGGGTKLEIK | 1.4 nM | 3 nM | 1 nM | 65.6 | 1.09 | 6.8 % of Neg Ctrl | 0.42 | – | – | – |
| KCD044 (antibody, V domains shown, chimeric) VH: EVQLQQSGAELVKPGASVRLSCTASGFNIKHTYMHWVSQRPERGLEWIGKIDPANGNTKYDPKFQGKATITADTSSNTVYLQLSSLTSEDTAVYYCLNAMEYWGQGTSVTVSS VL: QSVLTQSPAIMSASPGEKVTMTCSANSSVSDMYWYQQRPGSSPRLLIYDTSNLASGVPVRFSGSGSGTSYSLTISRMEAEDAATYYCQQWSTYPWTFGGGTKLEIK | 2.6 nM | 6 nM | 1.8 nM | 62.5 | 1.02 | 8.8 % of Neg Ctrl | 0.96 | – | – | – |
| KCD040 (antibody, V domains shown, chimeric) VH: EVQLQQSGAELVKPGASVKLSCTASDFNIKDTYMHWVMQRPEQGLEWIGKIDPANGNTEFDPKFQGKATITADTSSNTAYLQLTSLTSEDTAVYYCTRAMDYWGQGTSVTVSS VL: QIVLTQSPAIMSASPGEKVTMTCSAGSSVSYMYWYQQKPGSSPRVLIYDTSNLASGVPVRFSGSGSGTSYSLTISRMEAEDAATYYCQQWSNYPYTFGGGTKLEIK | 1.9 nM | 170 nM | 1.4 nM | 62.2 | 79.1 | 13.7 % of Neg Ctrl | 0.75 | – | – | – |
| KCD047 (antibody, V domains shown, chimeric) VH: EVQLQQSGAEFVKPGASVRLSCTASGFNIKDTYMHWVKQRPEQGLEWIGRIDPANGYTKDDPKFQGKATITADTSSNTAYLQLSSLTSEDTAVYYCASAMDYWGQGTSVTVSS VL: QIVLTQSPAVMSASPGEKVAMTCSASSSVTYMYWYQQKPGSSPRLLIYDTSNLASGVPVRFSGSGSGTSYSLTISRMEAEDAATYYCQQWSTYPFPFGSGTKLEIK | 4.4 nM | 160 nM | 3.4 nM | 58.9 | 6.62 | 47.3 % of Neg Ctrl | 2.9 | – | – | – |
| KCD119 TAF (antibody, V domains shown) VH: EVQLVESGGGLVQPGGSLRLSCAASGYTFTDYYMNWVRQAPGKGLEWIGDINPNTGDTSYNADFKRRFTFSLDTSKSTAYLQMNSLRAEDTAVYYCTREGPSFAYWGQGTLVTVSS VL: DIQLTQSPSSLSASVGDRVTITCRSSQTIVHSNGDTYLEWYQQKPGKAPNLLIYKVSNRFSGVPSRFSGSGSGTDFTLTISSLQPEDFATYYCFQGSHVPPTFGQGTKVEIK | – | – | – | – | – | – | – | 19.6 | 0.408 | – |
| Mouse KCD119 (antibody, V domains shown) VH: EVQLQQSGPELVKPGASVKISCKASGYTFTDYYTNWMRQRHGESLEWIGDINPNTGDTSYNQKFRVKATLTVDKSSGTAYMGLRSLTSEDSAVYYCTREGPSFAYWGQGTLVTVSA VL: DVLMTQTPLSLPVSLGDQASISCRSSQTIVHSNGDTYLEWYLQKPGQSPNLLIYKVSNRFSGVPDRFSGSGSGTDFTLKISRVEAEDLGVYYCFQGSHVPPTFGGGTTLEIK | – | – | – | – | – | – | – | 15.3 | 0.318 | – |
| 31S34I54V59D84S/54R101V (SEQ ID NO: 184) (antibody, V domains shown) VH: EVQLVESGGGLVQPGGSLRLSCAASGYTFTSYYINWVRQAPGKGLEWIGDINPVTGDTDYNADFKRRFTFSLDTSKSTAYLQMSSLRAEDTAVYYCTREGPSFAYWGQGTLVTVSS VL: DIQLTQSPSSLSASVGDRVTITCRSSQTIVHSNGDTYLEWYQQKPGKAPNLLIRKVSNRFSGVPSRFSGSGSGTDFTLTISSLQPEDFATYYCFQGSHVPVTFGQGTKVEIKR | – | – | – | – | – | – | – | 28.6 | 0.596 | – |
| 34I54V59D84S/54R101V (SEQ ID NO: 184) (antibody, V domains shown) VH: EVQLVESGGGLVQPGGSLRLSCAASGYTFTDYYINWVRQAPGKGLEWIGDINPVTGDTDYNADFKRRFTFSLDTSKSTAYLQMSSLRAEDTAVYYCTREGPSFAYWGQGTLVTVSS VL: DIQLTQSPSSLSASVGDRVTITCRSSQTIVHSNGDTYLEWYQQKPGKAPNLLIRKVSNRFSGVPSRFSGSGSGTDFTLTISSLQPEDFATYYCFQGSHVPVTFGQGTKVEIKR | – | – | – | – | – | – | – | 23.3 | 0.486 | – |
| 34I54I59D / 54R101V (antibody, V domains shown, KCD119 TAF variant) VH: EVQLVESGGGLVQPGGSLRLSCAASGYTFTDYYINWVRQAPGKGLEWIGDINPITGDTDYNADFKRRFTFSLDTSKSTAYLQMNSLRAEDTAVYYCTREGPSFAYWGQGTLVTVSS VL: DIQLTQSPSSLSASVGDRVTITCRSSQTIVHSNGDTYLEWYQQKPGKAPNLLIRKVSNRFSGVPSRFSGSGSGTDFTLTISSLQPEDFATYYCFQGSHVPVTFGQGTKVEIKR | – | – | – | – | – | – | – | – | – | Kd [12]: 0.00562 nM; koff [12]: 0.000101 s⁻¹; kon [12]: 1.8e+07 M⁻¹ s⁻¹; Kd [13]: 0.00808 nM; koff [13]: 0.000264 s⁻¹; kon [13]: 3.27e+07 M⁻¹ s⁻¹; Kd [14]: 0.00808 nM; koff [14]: 0.000264 s⁻¹; kon [14]: 3.27e+07 M⁻¹ s⁻¹; Kd [15]: 0.00562 nM; koff [15]: 0.000101 s⁻¹; kon [15]: 1.8e+07 M⁻¹ s⁻¹ |
| 54I59D / 54R101V (antibody, V domains shown, KCD119 TAF variant) VH: EVQLVESGGGLVQPGGSLRLSCAASGYTFTDYYMNWVRQAPGKGLEWIGDINPITGDTDYNADFKRRFTFSLDTSKSTAYLQMNSLRAEDTAVYYCTREGPSFAYWGQGTLVTVSS VL: DIQLTQSPSSLSASVGDRVTITCRSSQTIVHSNGDTYLEWYQQKPGKAPNLLIRKVSNRFSGVPSRFSGSGSGTDFTLTISSLQPEDFATYYCFQGSHVPVTFGQGTKVEIKR | – | – | – | – | – | – | – | – | – | Kd [12]: 0.00572 nM; koff [12]: 9.8e-05 s⁻¹; kon [12]: 1.71e+07 M⁻¹ s⁻¹; Kd [13]: 0.0071 nM and 0.00543 nM and 0.00663 nM and 0.00792 nM; koff [13]: 0.000187 s⁻¹ and 0.000257 s⁻¹ and 0.000205 s⁻¹ and 0.0003 s⁻¹; kon [13]: 2.64e+07 M⁻¹ s⁻¹ and 4.74e+07 M⁻¹ s⁻¹ and 3.09e+07 M⁻¹ s⁻¹ and 3.78e+07 M⁻¹ s⁻¹; Kd [14]: 0.00663 nM; koff [14]: 0.000205 s⁻¹; kon [14]: 3.09e+07 M⁻¹ s⁻¹; Kd [15]: 0.00642 nM and 0.00294 nM and 0.00572 nM and 0.00523 nM; koff [15]: 7.04e-05 s⁻¹ and 5.95e-05 s⁻¹ and 9.8e-05 s⁻¹ and 9.5e-05 s⁻¹; kon [15]: 1.1e+07 M⁻¹ s⁻¹ and 2.02e+07 M⁻¹ s⁻¹ and 1.71e+07 M⁻¹ s⁻¹ and 1.82e+07 M⁻¹ s⁻¹ |
